Test results as given in PMC3436176 (The Journal of Biological Chemistry, 2012).

Target: T1, GPVI-Fc2 (GPVI dimer) (Homo sapiens, UniProt Q9HCN6)
T1 sequence (Q9HCN6 21-214 limits assumed): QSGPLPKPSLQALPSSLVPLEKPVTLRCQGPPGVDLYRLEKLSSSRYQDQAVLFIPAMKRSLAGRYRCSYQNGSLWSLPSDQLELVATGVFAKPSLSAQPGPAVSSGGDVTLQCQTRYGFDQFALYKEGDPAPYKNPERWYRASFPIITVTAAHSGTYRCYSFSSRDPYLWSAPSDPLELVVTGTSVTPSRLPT
Assay: ELISA: GPVI dimer binding to immobilized collagenous substrates

B1: Collagen type III: Pepsin-treated bovine type III collagen from Koken (protein)
chain: EYEAYDVKSGVAGGGIAGYPGPAGPPGPPGPPGTSGHPGAPGAPGYQGPPGEPGQAGPAGPPGPPGAIGPSGKDGESGRPGRPGPRGFPGPPGMKGPAGMPGFPGMKGHRGFDGRNGEKGEPGAPGLKGENGVPGEDGAPGPMGPRGAPGERGRPGLPGAAGARGNDGARGSDGQPGPPGPPGTAGFPGSPGAKGEVGPAGSPGSSGAPGQRGEPGPQGHAGAPGPPGPPGSDGSPGGKGEMGPAGIPGAPGLIGARGPPGPPGTNGVPGQRGAAGEPGKNGAKGDPGPRGERGEAGSPGIAGPKGEDGKDGSPGEPGANGLPGAAGERGVPGFRGPAGANGLPGEKGPPGDRGGPGPAGPRGVAGEPGRNGLPGGPGLRGIPGSPGGPGSNGKPGPPGSQGETGRPGPPGSPGPRGQPGVMGFPGPKGNDGAPGKNGERGGPGGPGPQGPAGKNGETGPQGPPGPTGPSGDKGDTGPPGPQGLQGLPGTSGPPGENGKPGEPGPKGEAGAPGIPGGKGDSGAPGERGPPGAGGPPGPRGGAGPPGPEGGKGAAGPPGPPGSAGTPGLQGMPGERGGPGGPGPKGDKGEPGSSGVDGAPGKDGPRGPTGPIGPPGPAGQPGDKGESGAPGVPGIAGPRGGPGERGEQGPPGPAGFPGAPGQNGEPGAKGERGAPGEKGEGGPPGAAGPAGGSGPAGPPGPQGVKGERGSPGGPGAAGFPGGRGPPGPPGSNGNPGPPGSSGAPGKDGPPGPPGSNGAPGSPGISGPKGDSGPPGERGAPGPQGPPGAPGPLGIAGLTGARGLAGPPGMPGARGSPGPQGIKGENGKPGPSGQNGERGPPGPQGLPGLAGTAGEPGRDGNPGSDGLPGRDGAPGAKGDRGENGSPGAPGAPGHPGPPGPVGPAGKSGDRGETGPAGPSGAPGPAGSRGPPGPQGPRGDKGETGERGAMGIKGHRGFPGNPGAPGSPGPAGHQGAVGSPGPAGPRGPVGPSGPPGKDGASGHPGPIGPPGPRGNRGERGSEGSPGHPGQPGPPGPPGAPGPCCGAGGVAAI
With B1 the “Kd (monomer)/Kd (dimer)” value (binding to collagenous substrates) was 236.7 and the “Hill coefficient for dimer binding” value (mean ± S.E., n = 4-12 as printed) was 1.16 ± 0.11.
